Reference: US20080242590

Molecular target: amyloid β peptide 1-40 (human)

B1: Recombinant Human Neprilysin (R&D Systems) (protein)
chain: YDDGICKSSDCIKSAARLIQNMDATTEPCTDFFKYACGGWLKRNVIPETSSRYGNFDILRDELEVVLKDVLQEPKTEDIVAVQKAKALYRSCINESAIDSRGGEPLLKLLPDIYGWPVATENWEQKYGASWTAEKAIAQLNSKYGKKVLINLFVGTDDKNSVNHVIHIDQPRLGLPSRDYYECTGIYKEACTAYVDFMISVARLIRQEERLPIDENQLALEMNKVMELEKEIANATAKPEDRNDPMLLYNKMTLAQIQNNFSLEINGKPFSWLNFTNEIMSTVNISITNEEDVVVYAPEYLTKLKPILTKYSARDLQNLMSWRFIMDLVSSLSRTYKESRNAFRKALYGTTSETATWRRCANYVNGNMENAVGRLYVEAAFAGESKHVVEDLIAQIREVFIQTLDDLTWMDAETKKRAEEKALAIKERIGYPDDIVSNDNKLNNEYLELNYKEDEYFENIIQNLKFSQSKQLKKLREKVDKDEWISGAAVVNAFYSSGRNQIVFPAGILQPPFFSAQQSNSLNYGGIGMVIGHEITHGFDDNGRNFNKDGDLVDWWTQQSASNFKEQSQCMVYQYGNFSWDLAGGQHLNGINTLGENIADNGGLGQAYRAYQNYIKKNGEEKLLPGLDLNHKQLFFLNFAQVWCGTYRPEYAVNSIKTDVHSPGNFRIIGTLQNSAEFSEAFHCRKNSYMNPEKKCRVW
  Amyloid β 1-40 peptide degradation (remaining peptide by Gyrolab immunoassay), enzyme 2.4 µg/ml, 300 nM peptide, 2.5 h at 37 °C in buffer: degraded 64% of Amyloid β 1-40 peptide (300 nM)
  degradation of Aβ40 in human plasma compared to vehicle (ELISA), 5 µg/ml, 4 h at 37 °C: degraded Aβ40 with 33% and 70%, respectively
